Target: cell-surface PDGF receptors (on rat stellate cells) (rat)
Experiment: cell-based or functional assay

luciferase reporter (SRE/STAT) RLU in rat stellate cell lysate at 0.3 ng/ml: 160 RLU
luciferase reporter (SRE/STAT) RLU in rat stellate cell lysate at 1 ng/ml: 278 RLU
luciferase reporter (SRE/STAT) RLU in rat stellate cell lysate at 3 ng/ml: 400 RLU
luciferase reporter (SRE/STAT) RLU in rat stellate cell lysate at 10 ng/ml: 542 RLU
luciferase reporter (SRE/STAT) RLU in rat stellate cell lysate at 30 ng/ml: 672 RLU
luciferase reporter (SRE/STAT) RLU in rat stellate cell lysate at 100 ng/ml: 826 RLU
luciferase reporter (SRE/STAT) RLU in rat stellate cell lysate at 300 ng/ml: 883 RLU
Substance: PDGF-D GFD dimer (from UniProt Q5RA73 250-370) (ligand)

Reference: patent publication US20030109000A1
